{
  "source": "patent US20230106247A1",
  "about": "(L AND L BIO CO LTD NINGBO CHINA, published 2023)",
  "assay_in_all_cases": "ELISA",
  "key": {"human Sirpα-V2-his": {"target": "human Sirpα-V2-his (human)", "sequence (chain, as listed by the source)": "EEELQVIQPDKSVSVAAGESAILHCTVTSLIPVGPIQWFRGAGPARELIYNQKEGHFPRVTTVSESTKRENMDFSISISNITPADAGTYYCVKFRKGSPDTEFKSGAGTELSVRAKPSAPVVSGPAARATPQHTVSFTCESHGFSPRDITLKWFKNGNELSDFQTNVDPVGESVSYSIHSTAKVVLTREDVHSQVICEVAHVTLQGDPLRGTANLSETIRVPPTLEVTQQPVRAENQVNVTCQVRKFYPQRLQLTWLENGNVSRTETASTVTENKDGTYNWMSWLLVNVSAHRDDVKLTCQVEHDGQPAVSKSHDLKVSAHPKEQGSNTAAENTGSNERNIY", "protocol": "(§1) Different antigens (recombinant proteins) such as the human Sirpα-V1-hFc, Sirpα-V1-his, Sirpα-V2-his, Sirpβ-his, Sirpγ-his, monkey Sirpα-his (cynoSirpα-his) or NOD-mSirpα-his described in Example 1 were diluted with a PBS buffer at pH7.4 to concentrations of 1 μg/mL, 2 μg/mL or 5 μg/mL, added into a 96-well ELISA plate (Corning, CLS3590-100EA) at a volume of 50 μL/well, and placed in an incubator at 37° C. for 2 hours. After the liquid was discarded, the wells were added with a blocking solution of 5% skimmed milk (skimmed milk powder available from Bright Dairy) diluted with PBS at 230 μL/well, and incubated in an incubator at 37° C. for 3 hours, or placed overnight at 4° C. (for 16-18 hours) for blocking. The blocking solution was discarded, and the plate was washed with a PBST buffer (pH7.4 PBS containing 0.05% Tween-20) for 5 times, then added with 50 μL/well of the supernatant (containing a detection antibody) or 10 μg/mL of the starting 5-fold gradient dilution of the antibody to be tested, and incubated at 37° C. for 1 hour. […] The plated was washed with PBST for 5 times, then added with 50 μL/well of TMB chromogenic substrate (KPL, Cat #: 52-00-03), incubated at room temperature for 10-15 min, added with 50 μL/well of 1 M H₂SO₄ to stop the reaction, and read by a […] Go microplate reader (ThermoFisher, Cat #: 51119200) for the absorbance value at 450 nm, and then a clone with high binding activity was selected or a EC₅₀ value was calculated according to the OD value."}, "Cyno Sirpα L932": {"target": "T1, Cyno Sirpα L932 (cynomolgus)", "T1 chain": "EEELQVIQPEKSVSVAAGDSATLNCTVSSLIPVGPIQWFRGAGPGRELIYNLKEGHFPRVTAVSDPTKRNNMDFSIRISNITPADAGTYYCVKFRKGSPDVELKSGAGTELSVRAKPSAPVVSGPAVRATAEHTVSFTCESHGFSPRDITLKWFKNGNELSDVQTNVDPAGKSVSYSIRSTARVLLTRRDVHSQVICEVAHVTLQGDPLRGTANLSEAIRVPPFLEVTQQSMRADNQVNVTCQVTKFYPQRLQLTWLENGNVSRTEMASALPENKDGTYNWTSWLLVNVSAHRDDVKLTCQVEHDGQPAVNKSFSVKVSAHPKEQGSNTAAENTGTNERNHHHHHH", "protocol": "as §1"}, "human Sirpα-V1-his": {"target": "T2, human Sirpα-V1-his (human, UniProt P78324 31-373)", "T2 construct": "range 31-373; Bought (Sino Biological 11612-H08H) or expressed in-house; also called hSirpα-V1; hSirpα-V1-his", "protocol": "as §1"}, "Cyno Sirpα L936": {"target": "T3, Cyno Sirpα L936 (cynomolgus)", "T3 construct": "also called RB3-3; Cyno Sirpα polymorphism 3 (L936)", "T3 chain": "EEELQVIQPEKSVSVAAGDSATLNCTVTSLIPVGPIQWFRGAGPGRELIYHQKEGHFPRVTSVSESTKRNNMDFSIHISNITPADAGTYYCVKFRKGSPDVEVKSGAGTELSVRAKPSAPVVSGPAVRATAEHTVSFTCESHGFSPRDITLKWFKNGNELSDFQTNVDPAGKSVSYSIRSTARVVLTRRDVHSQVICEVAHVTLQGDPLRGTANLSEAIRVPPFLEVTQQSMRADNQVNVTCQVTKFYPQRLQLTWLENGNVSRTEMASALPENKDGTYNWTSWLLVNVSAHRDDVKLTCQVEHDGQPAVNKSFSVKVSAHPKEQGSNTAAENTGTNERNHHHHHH", "protocol": "as §1"}, "Cyno Sirpα L937": {"target": "T4, Cyno Sirpα L937 (cynomolgus)", "T4 construct": "also called RB3-5; Cyno Sirpα polymorphism 4 (L937)", "T4 chain": "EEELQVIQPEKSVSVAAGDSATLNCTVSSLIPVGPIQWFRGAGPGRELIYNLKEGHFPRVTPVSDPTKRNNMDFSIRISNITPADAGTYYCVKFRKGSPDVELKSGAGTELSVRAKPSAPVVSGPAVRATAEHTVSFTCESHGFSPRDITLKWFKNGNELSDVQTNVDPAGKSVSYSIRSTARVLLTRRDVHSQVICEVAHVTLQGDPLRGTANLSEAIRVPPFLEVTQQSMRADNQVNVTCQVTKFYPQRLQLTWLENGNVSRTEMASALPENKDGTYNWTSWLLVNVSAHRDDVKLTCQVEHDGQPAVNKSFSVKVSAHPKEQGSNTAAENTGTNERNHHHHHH", "protocol": "as §1"}, "Cyno Sirpα L938": {"target": "T5, Cyno Sirpα L938 (cynomolgus, limits assumed)", "T5 construct": "also called RB6-1; Cyno Sirpα polymorphism 5 (L938)", "T5 chain": "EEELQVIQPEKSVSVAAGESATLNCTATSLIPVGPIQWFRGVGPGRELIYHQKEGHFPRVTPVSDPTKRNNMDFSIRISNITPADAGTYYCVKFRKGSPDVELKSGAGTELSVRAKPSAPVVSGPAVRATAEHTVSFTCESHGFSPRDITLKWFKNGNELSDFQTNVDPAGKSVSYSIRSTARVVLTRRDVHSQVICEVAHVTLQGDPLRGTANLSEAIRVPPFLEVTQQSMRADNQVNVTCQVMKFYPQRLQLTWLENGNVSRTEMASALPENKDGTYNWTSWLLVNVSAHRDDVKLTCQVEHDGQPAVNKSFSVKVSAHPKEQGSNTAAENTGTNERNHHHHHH", "protocol": "as §1"}, "Cyno Sirpα L939": {"target": "T6, Cyno Sirpα L939 (cynomolgus, limits assumed)", "T6 construct": "also called RB6-2; Cyno Sirpα polymorphism 6 (L939)", "T6 chain": "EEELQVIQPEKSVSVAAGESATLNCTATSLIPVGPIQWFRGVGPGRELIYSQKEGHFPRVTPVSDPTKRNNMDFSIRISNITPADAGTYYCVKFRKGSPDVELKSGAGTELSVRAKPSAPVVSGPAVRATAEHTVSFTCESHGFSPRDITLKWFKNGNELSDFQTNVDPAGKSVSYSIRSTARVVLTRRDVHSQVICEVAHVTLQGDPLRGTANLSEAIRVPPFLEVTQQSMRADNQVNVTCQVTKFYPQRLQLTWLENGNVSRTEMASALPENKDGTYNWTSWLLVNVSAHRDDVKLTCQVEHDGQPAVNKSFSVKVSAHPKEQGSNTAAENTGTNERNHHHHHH", "protocol": "as §1"}, "Cyno Sirpα L933": {"target": "T7, Cyno Sirpα L933 (cynomolgus)", "T7 construct": "extracellular domain; also called Cyno Sirpα polymorphism 2 (L933)", "protocol": "as §1"}},
  "data": [
    {"binder": "humanized antibody mab14-h16 (antibody, human IgG4 S228P, kappa, V domains shown, hIgG4, κ) VH: QVQLVQSGAEVKKPGASVKVSCKASGYNFNIYWINWVRQAPGQGLEWIGNIYPSSISTNYNEKFKTRATLTVDKSTSTVYMELSSLRSEDTAVYYCARSEGTYYGGRYEGDWFGYWGQGTLVTVSS VL: DIQMTQSPSSLSASVGDRVTITCRASQDIRNYLNWYQQKPGKAPKLLIYFTSTLHSGVPSRFSGSGSGTDFTLTISSLQPEDFATYYCQQGNTLPWTFGGGTKVEIKR", "values": [
      {"measurement": "EC50", "setting": "human Sirpα-V2-his", "result": 0.094, "unit": "nM"},
      {"measurement": "EC50", "setting": "Cyno Sirpα L932", "result": 0.181, "unit": "nM"},
      {"measurement": "EC50", "setting": "human Sirpα-V1-his", "result": 0.065, "unit": "nM"},
      {"measurement": "EC50", "setting": "Cyno Sirpα L936", "result": 0.143, "unit": "nM"},
      {"measurement": "EC50", "setting": "Cyno Sirpα L937", "result": 0.121, "unit": "nM"},
      {"measurement": "binding result", "setting": "Cyno Sirpα L938", "result": "no binding (tested: the binding signal was not detected)"},
      {"measurement": "binding result", "setting": "Cyno Sirpα L939", "result": "no binding (tested: the binding signal was not detected)"},
      {"measurement": "EC50", "setting": "Cyno Sirpα L933", "result": 0.159, "unit": "nM"}
    ]}
  ]
}
